Reference: the nanobody polyreactivity screen of Harvey et al. (2022)

Test: yeast display, Sf9 membrane polyspecificity reagent, FACS + sequencing; frameworks hold sequencing errors
Summary of the method: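 Synthetic nanobody libraries on Saccharomyces cerevisiae BJ5465 were galactose-induced for 36–48 hours, stained 1 hour at 4 °C with 10% biotinylated, detergent-solubilized Sf9 membrane reagent and enriched on streptavidin microbeads. FACS then separated cells into low and high (top ~1%) gates by anti-HA (expression) and streptavidin (reagent binding) fluorescence. Genes were colony-PCR amplified, MiSeq 2 × 250 sequenced and CDR-length filtered. A clone's polyreactivity label is that of its gate of origin.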

| Sequence | polyreactivity (PSR sort gate) |
| --- | --- |
| QVQLVESGGGLVQEGGSLRLSCAASGFIFTPNTMGWYRQAPGKERELVAAITTNGGRTYYADSVKGRFTISRDNAKNTVYLQMNSLKSEDTAVYYCAARYVSSFGLHAQVWSYYYCGQGTQVTVSS | high polyreactivity |
| QVQVVESGGGLVQAGGSLRLRCAASGSIIKYYAMGWYREAPGKERELVADISWRGGRTYADSVKGRFTISRDNAKNTVYLQMNCLIPEDTAVYYCAKPSKARGGYDYWGQGTQVTVSS | high polyreactivity |
| QVQLVESGGGLVQAGGSLRLSCAASGRIFPQNAMGWYRQAPGKERELVAAITSDGAITYYADSVKGRFTISRDNAKNTVYLQMNSLKPEDTAVYYCATQGRYYDYDYWGQGTQVTVSS | low polyreactivity |
| QVQLVESGGGLVQAGGSLRLSCAASGSIFGNYVMGWYRQAPGKERELVAAIRWTGGSTYYADSVKGRFTISRDNAKNTVYLQMNSLKAEDTAVYYSIADSSDDYDYWGQGTQVTVSS | low polyreactivity |
| QVQLVESGGGLVQAGGSLRLSCAASGFIFDSYAMGWYRQAPGKERELVAAISWSGGRTYYADSVKGRFTISRDNAKNTVYLQMNSLKPEDTAVYYCNVRTKLSTSYDYWGQGTQVTVSS | high polyreactivity |
| QVQIVESGGGLVQAGGSLRLSCADSGRTLYRYGMGWYRQAPGKERELVDVIDRGGSTNYADSVKGRFTISRDNAKNTVYLLMNSLKPEDTAVYYCAKRWTAREPWRKGMGYWGQGTQVTVSS | high polyreactivity |
| QVQLVESGGGLVQAGGSLRLSCAASGRTFWSNAMGWYRQAPGKERELVADITLSGGRTYYADSVKGRFTISRDNAKNTVYLHMNILKPEDTAVYYCAASATPSGVGMDYWGQGTQVTVSS | low polyreactivity |
| QVQLVESGGGLVQAGGSLRLSCAASGRIFSSNVMGWYRQAPGKERELVAAITSGGSTYYADSVKGRFTISRDNAKNTVYLQMNSLKPEDTAVYYCAASYWVLRYRYDYWGQGTQVTVSS | high polyreactivity |
| QVKLLESGGGLVQAGGSLRLTCAASGFIFRRYTMGWYRHAPGEEREWVAAISITGSRTYYADSVKGRFTISPDNAKNNVYLQMNSLKPEDTAVYYCAADPDKSSAGDFDYWGHGTQVTVSS | high polyreactivity |
| QVQLVESGGGLVQAGGSLRLSCAASGSIFYLYAMGWYRQAPGKESELVAAITSGDSTTYADSVKWRFTISRDYAKNTVYLQMNSLKPEDTAVYYCAADWPGLVGYHNSAENDYWGQGTQVTVSS | low polyreactivity |
| QVQLVESGGGLVQEGGSLRLSCAASGRIFDENAMGWYRQAPGKERELVAAISSGDSTKYADSVKGRFTISRDNAKNTVYLQMNSLKPEDTAVYYCAAARNHGLVGSESVGRNDYWGQGTQVTVSS | low polyreactivity |
| QVQLVESGGGLVQAGGSLRLSCAASGRTFSRYAMGWYRQAPGKERELVAGISRSGTSTYYADSVKGRFTFSRDNAKNTVYLQMNSLKPEDTAVYYCAAYYEYRRDYWGQGTQVTVSS | high polyreactivity |
| QVQLVESGGGLVQAGGSLRLSCAASGITFYDYAMGWYRQEPGKERELVAAINSSGVRTYYADSVKGRFTISRDNAKNTVYLQMNSLKPEDTAVYYCAAVRRGPYISRSDMDYYWGQGTQVTVSS | high polyreactivity |
| QVQLVESGGGLVQAGGSLRLSCAASGRTLAENAMGWYRQAPGKERELVAAISSIGGRTYYADSVKGRFTISRDNAKNTVYLQMNSLKPEDTAVYYCAATLRTKSARYNYWGQGTQVTVSS | high polyreactivity |
| QVQLVESGGGLVQAGGSLRLSCAASGRTLKYNAMGWYRQAPGKERELVAAISWSGTRTYYADSVKGRFTISRDNAKNTVYLQMNSLKPEDTAVYYCALYGGLGDRFRPRYYWGQGTQVTVSS | high polyreactivity |
| QVQLVESGGGLVQAGGSLRLSCAASGRIFKIYAMGWYRQAPGKERELVASISWSGGRTYYADSVKGRFTISRDNAKNTVYLQMNSLKPEDTAVYYCAATFSYSSYIYDYWGQGTQVTVSS | high polyreactivity |
| QVQLVESGGGLVQAGGSLRLSCAASGSIFEPNDMGWYRQAPGKEREFVAAISGSGGSTYYADSVKGRFTISRDNAKNTVYLQINSLKPEDTAVYYCANRGKRSYFRTFYYWGHGTQVTVSS | high polyreactivity |
| QVQLVESGGGLVQAGGSLRLSCAASGFTLSYYAMGWYRQAPGKERELVAAMTWSDTSTYYADSVKGRFTISRDKAKNTVYVQMNSLKPEDTAVYYCAAEDEWVTWGWGYYYWGQGTQVTVSS | high polyreactivity |
| QVQLVESGGGLVQAGGSLRLSCAASGFTFAVYTMGWYRQAPGKERELVAAITASGGSMHYADSVKGRFTISRDNVKNTVYLQMNSLKPEDTAVYYCAARPRLYQYYYWGQGTQVTVSS | high polyreactivity |
| QVQLVESGGGLVQAGGSLRLTCAASGITFGVYAMGGYRQAPGKERELVAAITRGGRTYYADSVKGRFTISRDNAKNTVYLQMNSLKPVDTAVYYCAAGFWWSSYGYWGQGTQVTVSS | high polyreactivity |
| QVQLVESGGGLVQAGGSLRLSCAASGRIFGGYAMGWYRPAPGKERELVAAISSRGGSTYYADSVKGRFTISRDNAKNTVYLQMNSLKPEDTAVYYCAADGRVKGWGQGTQVTVSS | high polyreactivity |
| QVQLVESGGGLVQAGGSLRLSCAASGLIFVWYAMGWYRQAPGKERELVAAISWRGGTRYYADSVKGRFTISRDNAKNTVYLQMTSLKPEDTAVYYCARDPDTYFFPPNGYYSSGFDSWGQGTQVTVSS | low polyreactivity |

| Sequence | polyreactivity (PSR sort gate) |
| --- | --- |
| QVQLVESGGGLVQAGGSLRLSCAASGFTFQENAMGWYRQAPGKERELVAAISKSGGITYYADSVKGRFTISRDNAKNTVYLHMNSLKPEDTAVYYCNKGNAYVVYTSGYDYWGQGTQVTVSS | low polyreactivity |
| QVQLVESGGGLVQAGGSLRLSCAASGITFRKYAMGWYRPAPGKERELVAAISSGGSRTYYADSVKGRFTISRDNAKNTVYLQMNSLKPEDTAVYYCAARKADTVFKFEYWGQGTQVTVSS | high polyreactivity |
| QVQLVESGGGLVQAGGSLRLSCAASGSTFAGNAMGWYIQAPGKERELVAAISSSGAGTYYADSVKGRFTISRDNAKNTVYLLINSLKPADTAVYYCNVGSRALRRRVRSVSFDYWGQGTQVSVSS | low polyreactivity |
| QVHLVESGGGLVQAGGSLRLSCAASGRTYARYTMAWYRQAPGKEREMVASITRGGSTYFADSVKGRFTISRDNAKNTVYLQMNSLKPGDTAVYYCAARFPQHNYWAMDYWGLGTQVTVSS | high polyreactivity |
| QVQLVESGGGLVQAGGSLRLICAASGRIFCNYAMGWSRQAPGKERELVAAISSGGNTYYADSVKGRFTISRDNAKNTVYLQMNSLKPEDSAVYYCNEVYVGWQYGYDYWGQGTQVTVSS | low polyreactivity |
| QVQLVESGGGLVQAGGSLRLSCAASGSTFILYAMGWYRQAPGKERELVAAISSDGSTYYADSVKGRFTISRDNAKNTVYLQMNSLKPEDTAVYYCAADSDTFYYTGYDYDYWGQGTQVTVSS | low polyreactivity |
| QVQLVESGGGLVQAGGRLRLSCAASGRTIVQNAMVWYRHDPGKERALVAAITSSGGRTYYADSVKGRFTISRDNAKNTVYLQMNSLKPEDTAVYYGAVTLRRGYDYWGQGTQVTVSS | high polyreactivity |
| QVQLVESGGGLVQAGGSLRLSCAASGRNFRKYTMGWYRQAPGKERELVATISNSGVSTYYADSVKGRFTISRDYAKNTVYLQMNSLKPEDTAVYYCSKEWLYYNGFFRSYYWGQGTQVNVSS | high polyreactivity |
| QVQLVESGGGLVQAGGSLRLSCAASGSIFTEYVMGWYRQAPGKERELVAAAITRGGSTNYADSVKGRFTISRDNAKNSVYLQMYCLKPEDTAVYYCNKDVWPVSRQLYTGKYDSWGQGTQVTVSS | low polyreactivity |
| QVQLVESGGGLVQVGGSLRLSCAASGFTFYDYAMGWYRQAPGKERELVAAMSRGGSTYYADSVKGRFTISRDNAKNTVYLQMNSLKPEDTAVYYCNARPTRIYHGMGYWGQGTQVTVSW | low polyreactivity |
| QVQLVESGGGLVQAGGSLRLSCAASGFIFRDNAMGWYRQAPGKERELVAAISKSGGRTYYADSVKGRFTISRDNAKNTVYLQMNSLKPEDTAVYYCAKASRYWSLYYWGQGTQVTVSS | high polyreactivity |
| RYADSVKGRFTISRDNAKNTDYLQMNSLKPEDTAVYYCAAKGPEPPSLDESDYWGQVTQVTVSS | low polyreactivity |
| QVQLVESGGGLVQAGGSLRLSCAASGRIFRKYTMGWYRQAPGKERELVAAISARGGSTYYADSVKGRFTISRDNAKNTVYLQMNSLKPEDTAVYYCTTSPIGNITYRYDYWGQGTQVTVSS | high polyreactivity |
| QVQLVESGGGLVQAGGSLSLSCAASGIFSRYAMGWYRQAPGKERELVAAISSGGSTYYAESVKGRFTISRDNAKNTVYLQMNSLKPEDTAVYYCSVKQRDKFAGGRNDYWGQGTQVTVSS | high polyreactivity |
| QVQLVESGGGLVQAGGSLRLSCAASGSIFFAYSMGWYRQAPGKERELVAAISWSDGSTYYADSVKGRFTISRDNAKNTVYLQMNSLKPEDTAVYYCDKVYRSIGPNVSRYGLSYYYWGQCTQVTVSS | low polyreactivity |
| QVQLVESGGGLVQAGGSLRLSCAASGITFGAYTMGWYRQAPGKERELVAAISGSGGSTYYADSVKGRFTISRDNAKNTVYLQMNSLKPEDTAVTYCNKVLSPHLGCSFDYWGQGTEVTVSS | high polyreactivity |
| QVQLVESGGGLVQAGGSLRLSCAASGSIFPRYAMGWYRQAPGKERELVAAISWSGGSTYYADSVKGRFTISRDNAKNTFYLQMNSLKPEDTAVYYCAALSKHVQVAYDPWGQGTQVTVSS | high polyreactivity |
| QVQLVESGGGLVQAGGSLRLSCAASGRIFGVYAMGWYRQAPGKERELVAAITYRGASTYADSVKGRFTISRDNAKNTVYLQMNSLNPEDTAVYYCAAEPGSRSYGGDYWGQGTQVTVSS | high polyreactivity |
| QVQLVESGGGLVQAGGSLRLSCAASGGIFRWYVMGWYRPEPGKERDFVAAISQSGGSTYYADSVKGRFTISRDNAKNTVYLQMNCLKPEDTAVYYCAAGFYHYRSFNFDYWGQGTQVTVSS | high polyreactivity |
| QVQLVESGGGLVQAGGSLRLSCAASGSTLVPNAMGWYRQAPGKERELVATISFSSGRTYYADSVKGRFTISRDNAKNTVYLQMNSLKPEDTAVYYCNARSFGPTESRYDYWGQGTQVTVSS | high polyreactivity |
| QVQLVESGGGLVQAGGSLRLSCAASGIIFFWNAMGWYRQAPGKERELVAAISEDGGGTYYADSVKGRFTISRDNAKNTVYLQMNSMKPEDTAVYYCNTDTSPQIVTRGSFDDYWGQGTQATVSS | low polyreactivity |
